Source: article PMC2747730 (Biochemistry, 2008)

Biological target: the molecule itself
Experiment: PFG-NMR translational diffusion

B1: Sml1 (suppressor of Mec1 lethality), full length wild type (natural protein, S. cerevisiae, UniProt Q04964 1-104, looked up)
chain: MQNSQDYFYAQNRCQQQQAPSTLRTVTMAEFRRVPLPPMAEVPMLSTQNSMGSSASASASSLEMWEKDLEERLNSIDHDMNNNKFGSGELKSMFNQGKVEEMDF
Kd: 93 ± 25 µM
